Consider eight molecules from paper PMC2275666 (The EMBO Journal, 2008).

To fix the notation:
T1: hTFIIH p62 PH-D (pleckstrin homology domain of the p62 subunit of human TFIIH) (human, UniProt P32780 1-108)
T1 sequence: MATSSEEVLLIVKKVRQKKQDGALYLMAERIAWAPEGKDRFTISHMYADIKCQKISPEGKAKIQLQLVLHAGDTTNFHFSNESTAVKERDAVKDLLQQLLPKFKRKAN

B1: 6H–hTFIIEα wild type (full-length hTFIIEα) (natural protein)
chain: MADPDVLTEVPAALKRLAKYVIRGFYGIEHALALDILIRNSCVKEEDMLELLKFDRKQLRSVLNNLKGDKFIKCRMRVETAADGKTTRHNYYFINYRTLVNVVKYKLDHMRRRIETDERDSTNRASFKCPVCSSTFTDLEANQLFDPMTGTFRCTFCHTEVEEDESAMPKKDARTLLARFNEQIEPIYALLRETEDVNLAYEILEPEPTEIPALKQSKDHAATTAGAASLAGGHHREAWATKGPSYEDLYTQNVVINMDDQEDLHRASLEGKSAKERPIWLRESTVQGAYGSEDMKEGGIDMDAFQEREEGHAGPDDNEEVMRALLIHEKKTSSAMAGSVGAAAPVTAANGSDSESETSESDDDSPPRPAAVAVHKREEDEEEDDEFEEVADDPIVMVAGRPFSYSEVSQRPELVAQMTPEEKEAYIAMGQRMFEDLFE
B2: GST–p62(1−238) (domain or fragment)
chain: not shown
B3: GST–p62(1−333) (domain or fragment)
chain: not shown
B4: GST–p62(1−108) (GST-tagged p62 PH-D) (domain or fragment)
chain: T1 sequence
B5: hTFIIEα(351−439) (longer construct with STDE and acidic regions, NMR titration) (domain or fragment)
chain: GSDSESETSESDDDSPPRPAAVAVHKREEDEEEDDEFEEVADDPIVMVAGRPFSYSEVSQRPELVAQMTPEEKEAYIAMGQRMFEDLFE
B6: FLAG-tagged hTFIIH p62 PH-D, wild type (domain or fragment)
chain: T1 sequence
B7: hTFIIEα AC-D (C-terminal acidic domain of the human TFIIEα subunit, residues 378–439) (domain or fragment)
chain: EEDEEEDDEFEEVADDPIVMVAGRPFSYSEVSQRPELVAQMTPEEKEAYIAMGQRMFEDLFE

Values joined by “and” are separate entries in the source; they are usually repeats but may differ in a detail not shown here. Equal entries are not always repeated. Where two headings read alike, the source gives them in different places.

Assay [1] has as its target full-length GST–p62(1−548) (human, UniProt P32780 1-548). The assay can be described thus: pull-down.
Assay [2] concerns the target B1. Put plainly: pull-down.
Assay [3] concerns the target T1, hTFIIH p62 PH-D (pleckstrin homology …). Put plainly: NMR titration.
In assay [4] the target is B1. The assay can be described thus: pull-down. The source holds these as a separate data set.

On to B1, for which, in assay [1], the binding result is “binds”.

In the case of B2, the binding result in assay [2] is “binds”.

With B3, in assay [2], the binding result was “binds”.

Take B4: the binding result in assay [2] is recorded as “binds”.

For EEEDDEFEEVADDP [hTFIIEα AC-D(381−394) peptide (N-terminal tail only)], the Kd (in general, a measure of binding affinity in units of concentration) in assay [3] came to 2120 ± 192 nM.

Molecule B5 showed a Kd in assay [3] of 400 ± 43 nM.

Regarding B6, the binding result in assay [4] is given as “binds”.

With B7, the Kd in assay [3] was 376 nM and 237 nM.
